The target of this assay is acetylcholine receptor (Homo sapiens, UniProt P02708). Description: SPR binding affinity (RU) of optimized 5mer/6mer/7mer peptides, Examples 6-7. Conditions: SPR, peptides tested at 10 μM. In outline: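 SPR, peptides at 10 μM; read-out = response units (RU). Sequences drawn from top- or bottom-frequency amino acid combinations, 5mer/6mer-1/6mer-2 libraries.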
The mark [1] stands for this setting: Resonance Units, 6mer-1 Bottom sequence (Table 11).

Sequence of acetylcholine receptor (P02708 21-457): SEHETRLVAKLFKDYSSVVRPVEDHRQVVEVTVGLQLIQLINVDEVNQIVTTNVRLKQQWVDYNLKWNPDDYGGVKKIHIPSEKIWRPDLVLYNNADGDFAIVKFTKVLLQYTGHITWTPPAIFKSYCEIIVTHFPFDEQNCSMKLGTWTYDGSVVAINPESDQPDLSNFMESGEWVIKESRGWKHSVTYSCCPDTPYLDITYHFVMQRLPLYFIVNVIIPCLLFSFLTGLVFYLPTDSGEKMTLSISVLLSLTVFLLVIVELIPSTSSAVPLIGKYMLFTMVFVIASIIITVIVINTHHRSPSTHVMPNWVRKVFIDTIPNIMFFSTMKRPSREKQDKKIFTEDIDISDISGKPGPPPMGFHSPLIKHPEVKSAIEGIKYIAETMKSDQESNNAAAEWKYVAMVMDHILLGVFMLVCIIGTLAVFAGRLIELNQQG

Take 6mer-1-594 (KRQLQR): the Binding affinity (6mer-1 Top sequence) is on record as 121 Ru.

Take 6mer-1-595 (KKSLCK): the Binding affinity (6mer-1 Top sequence) came to 121 Ru.

6mer-1-596 (RKGVLR): the Binding affinity (6mer-1 Top sequence) is recorded as 148 Ru.

As for 6mer-1-597 (KRGFYK), the Binding affinity (6mer-1 Top sequence) was 148 Ru.

On to 6mer-1-598 (RKWLSK), for which the Binding affinity (6mer-1 Top sequence) is reported as 142 Ru.

Regarding 6mer-1-599 (KKLYQR), the Binding affinity (6mer-1 Top sequence) is listed as 124 Ru.

Consider 6mer-1-600 (KRGYCR), for which the Binding affinity (6mer-1 Top sequence) stood at 139 Ru.

For the substance 6mer-1-601 (KKEWNK), the Binding affinity under setting [1] was 27 Ru.

For 6mer-1-602 (RKAEKR), the Binding affinity under setting [1] is listed as 18 Ru.

For the substance 6mer-1-603 (KRPHFK), the Binding affinity under setting [1] is recorded as 13 Ru.

Consider 6mer-1-604 (KKFTKK), for which the Binding affinity under setting [1] amounted to 24 Ru.

Turning to 6mer-1-605 (RKNADR), under setting [1], the Binding affinity came to 20 Ru.

For the substance 6mer-1-606 (RREWFR), under setting [1], the Binding affinity is listed as 15 Ru.

Consider 6mer-1-607 (KKDHFR), for which the Binding affinity under setting [1] was 22 Ru.

Consider 6mer-1-608 (KKACMR), for which, under setting [1], the Binding affinity was found to be 18 Ru.

With 6mer-1-609 (RKNPVR), the Binding affinity under setting [1] is reported as 24 Ru.

As to 6mer-1-610 (KKHHER), the Binding affinity under setting [1] is 27 Ru.

Consider 6mer-1-611 (KKNCHK), for which the Binding affinity under setting [1] is listed as 23 Ru.

On to 6mer-1-612 (KRIMER), for which the Binding affinity under setting [1] came to 17 Ru.

On to 6mer-1-613 (KRIMKK), for which the Binding affinity under setting [1] was found to be 14 Ru.

As for 6mer-1-614 (KKEEER), the Binding affinity under setting [1] is given as 12 Ru.

Turning to 6mer-1-615 (KKTSER), the Binding affinity under setting [1] worked out at 18 Ru.

As for 6mer-1-616 (KKNTIK), the Binding affinity under setting [1] is 31 Ru.

With 6mer-1-617 (KRHNVR), the Binding affinity under setting [1] was found to be 31 Ru.

In the case of 6mer-1-618 (RKCHVK), the Binding affinity under setting [1] amounted to 19 Ru.

With 6mer-1-619 (KKIDKR), under setting [1], the Binding affinity was 23 Ru.

6mer-1-620 (RRKTAK): the Binding affinity under setting [1] amounted to 11 Ru.

In the case of 6mer-1-621 (RRMAGK), under setting [1], the Binding affinity was 30 Ru.

For the substance 6mer-1-622 (KKCPNR), the Binding affinity under setting [1] is listed as 18 Ru.

As to 6mer-1-623 (RRTDWR), the Binding affinity under setting [1] turned out to be 21 Ru.

For 6mer-1-624 (KKPPAK), the Binding affinity under setting [1] stood at 30 Ru.

For 6mer-1-625 (KREDKK), the Binding affinity under setting [1] was determined as 33 Ru.

Consider 6mer-1-626 (KRPDNR), for which the Binding affinity under setting [1] amounted to 27 Ru.

6mer-1-627 (RRTWWR): the Binding affinity under setting [1] is 29 Ru.

As for 6mer-1-628 (RRENEK), under setting [1], the Binding affinity stood at 23 Ru.

As to 6mer-1-629 (RKMDAK), the Binding affinity under setting [1] amounted to 11 Ru.

Consider 6mer-1-630 (KRMEPR), for which, under setting [1], the Binding affinity came out at 14 Ru.

For the substance 6mer-1-631 (RRYSDR), the Binding affinity under setting [1] was 13 Ru.

As for 6mer-1-632 (RKDTAR), the Binding affinity under setting [1] was determined as 17 Ru.

Take 6mer-1-633 (RKIDAK): the Binding affinity under setting [1] is reported as 16 Ru.

Regarding 6mer-1-634 (KKNTMR), the Binding affinity under setting [1] worked out at 12 Ru.

6mer-1-635 (KKTTWK): the Binding affinity under setting [1] is on record as 33 Ru.

As to 6mer-1-636 (RKYKDR), the Binding affinity under setting [1] came to 27 Ru.

For 6mer-1-637 (RRFEFK), the Binding affinity under setting [1] came out at 33 Ru.

6mer-1-638 (KKESHR): the Binding affinity under setting [1] is given as 20 Ru.

Take 6mer-1-639 (KRPNVR): the Binding affinity under setting [1] is 24 Ru.

For the substance 6mer-1-640 (RRNCWR), the Binding affinity under setting [1] is 25 Ru.

With 6mer-1-641 (RREMFK), the Binding affinity under setting [1] worked out at 21 Ru.

On to 6mer-1-642 (KKYNGK), for which the Binding affinity under setting [1] is recorded as 24 Ru.

For the substance 6mer-1-643 (KRYSMR), under setting [1], the Binding affinity is recorded as 31 Ru.

As for 6mer-1-644 (RKTWFR), the Binding affinity under setting [1] was 31 Ru.

Consider 6mer-1-645 (RRTTIR), for which the Binding affinity under setting [1] was 33 Ru.

For the substance 6mer-1-646 (RRCTGK), the Binding affinity under setting [1] came out at 33 Ru.

Consider 6mer-1-647 (RKYNVR), for which, under setting [1], the Binding affinity amounted to 14 Ru.

As to 6mer-1-648 (KKFWEK), the Binding affinity under setting [1] is 17 Ru.

Turning to 6mer-1-649 (RRIAGK), under setting [1], the Binding affinity turned out to be 32 Ru.

6mer-1-650 (RRCNNR): the Binding affinity under setting [1] was determined as 18 Ru.

6mer-1-651 (KRICWK): the Binding affinity under setting [1] is 27 Ru.

Consider 6mer-1-652 (RRPEVK), for which, under setting [1], the Binding affinity was found to be 26 Ru.

As to 6mer-1-653 (KRMTHR), the Binding affinity under setting [1] is reported as 15 Ru.

On to 6mer-1-654 (KRMNDR), for which the Binding affinity under setting [1] was found to be 23 Ru.

Regarding 6mer-1-655 (RKNMFR), under setting [1], the Binding affinity is given as 12 Ru.

For 6mer-1-656 (RRPTHK), under setting [1], the Binding affinity was found to be 28 Ru.

Turning to 6mer-1-657 (RRCTVR), the Binding affinity under setting [1] came to 17 Ru.

Turning to 6mer-1-658 (RKKEMK), the Binding affinity under setting [1] is 20 Ru.

Turning to 6mer-1-659 (KKPSKR), under setting [1], the Binding affinity turned out to be 29 Ru.

For the substance 6mer-1-660 (KKYHVK), the Binding affinity under setting [1] is 31 Ru.

Consider 6mer-1-661 (RKPKWR), for which the Binding affinity under setting [1] is recorded as 14 Ru.

6mer-1-662 (KKMTER): the Binding affinity under setting [1] turned out to be 20 Ru.

For 6mer-1-663 (KKFKDR), under setting [1], the Binding affinity stood at 26 Ru.

As to 6mer-1-664 (KRDHIK), the Binding affinity under setting [1] was found to be 26 Ru.

For 6mer-1-665 (KKCDGK), the Binding affinity under setting [1] is given as 21 Ru.

As for 6mer-1-666 (KKAANK), the Binding affinity under setting [1] is listed as 18 Ru.

In the case of 6mer-1-667 (KRDSPK), the Binding affinity under setting [1] is recorded as 32 Ru.

With 6mer-1-668 (RKATVK), the Binding affinity under setting [1] was determined as 17 Ru.

For the substance 6mer-1-669 (KRNMAK), the Binding affinity under setting [1] is 23 Ru.

6mer-1-670 (KKDWNR): under setting [1], the Binding affinity worked out at 11 Ru.

For 6mer-1-671 (KKNMVR), the Binding affinity under setting [1] was determined as 11 Ru.

As to 6mer-1-672 (RKMEIR), the Binding affinity under setting [1] turned out to be 17 Ru.

As for 6mer-1-673 (RRAMPK), the Binding affinity under setting [1] amounted to 16 Ru.

As to 6mer-1-674 (RKHPKK), the Binding affinity under setting [1] is listed as 32 Ru.

Take 6mer-1-675 (KKIWKR): the Binding affinity under setting [1] is on record as 21 Ru.

On to 6mer-1-676 (KRCPWR), for which, under setting [1], the Binding affinity is 16 Ru.

For the substance 6mer-1-677 (KKCCFR), the Binding affinity under setting [1] was 22 Ru.

With 6mer-1-678 (KRMAAK), under setting [1], the Binding affinity is listed as 25 Ru.

For 6mer-1-679 (KKAEER), the Binding affinity under setting [1] worked out at 30 Ru.

For 6mer-1-680 (KKDPPR), under setting [1], the Binding affinity is 27 Ru.

Turning to 6mer-1-681 (KKEWKK), under setting [1], the Binding affinity is on record as 32 Ru.

Take 6mer-1-682 (KKKDIR): the Binding affinity under setting [1] came to 30 Ru.

With 6mer-1-683 (KRDSMR), the Binding affinity under setting [1] is 16 Ru.

For the substance 6mer-1-684 (KRNNDR), under setting [1], the Binding affinity is reported as 20 Ru.

As to 6mer-1-685 (RRESWK), the Binding affinity under setting [1] is 14 Ru.

For the substance 6mer-1-686 (KKYEVR), the Binding affinity under setting [1] was determined as 25 Ru.

For the substance 6mer-1-687 (RREWIK), under setting [1], the Binding affinity is given as 23 Ru.

Turning to 6mer-1-688 (RKDEVR), under setting [1], the Binding affinity stood at 33 Ru.

Take 6mer-1-689 (KRCPVR): under setting [1], the Binding affinity is 11 Ru.

Take 6mer-1-690 (KREAER): the Binding affinity under setting [1] is 21 Ru.

For the substance 6mer-1-691 (RKPKAR), under setting [1], the Binding affinity is on record as 31 Ru.

6mer-1-692 (RKNTHK): the Binding affinity under setting [1] was found to be 22 Ru.

For the substance 6mer-1-693 (RKIDMK), the Binding affinity under setting [1] amounted to 22 Ru.

For the substance 6mer-1-694 (RKYTKR), the Binding affinity under setting [1] was 27 Ru.

6mer-1-695 (KRADVK): the Binding affinity under setting [1] is reported as 13 Ru.

Turning to 6mer-1-696 (KKHCNR), under setting [1], the Binding affinity is listed as 18 Ru.

As to 6mer-1-697 (RRPTNR), the Binding affinity under setting [1] was 13 Ru.

6mer-1-698 (KRFNHK): under setting [1], the Binding affinity turned out to be 27 Ru.

Turning to 6mer-1-699 (RRTTVR), the Binding affinity under setting [1] amounted to 28 Ru.

With 6mer-1-700 (RKKMWK), the Binding affinity under setting [1] is recorded as 19 Ru.

With 6mer-1-701 (RRKTWR), the Binding affinity under setting [1] was 13 Ru.

In the case of 6mer-1-702 (KRDWVK), the Binding affinity under setting [1] amounted to 31 Ru.

For the substance 6mer-1-703 (KKFHPR), the Binding affinity under setting [1] came to 18 Ru.

Consider 6mer-1-704 (RRMCER), for which, under setting [1], the Binding affinity stood at 16 Ru.

In the case of 6mer-1-705 (KRTEWR), the Binding affinity under setting [1] worked out at 12 Ru.

Consider 6mer-1-706 (KRMKDR), for which, under setting [1], the Binding affinity is on record as 29 Ru.

In the case of 6mer-1-707 (KRFWPK), the Binding affinity under setting [1] amounted to 26 Ru.

Regarding 6mer-1-708 (KKKHEK), the Binding affinity under setting [1] is given as 14 Ru.

On to 6mer-1-709 (KKFKPK), for which the Binding affinity under setting [1] is on record as 29 Ru.

Take 6mer-1-710 (KKMHHR): the Binding affinity under setting [1] came out at 21 Ru.

Take 6mer-1-711 (RRATHR): under setting [1], the Binding affinity was 19 Ru.

For 6mer-1-712 (KKPSNK), under setting [1], the Binding affinity amounted to 24 Ru.

For 6mer-1-713 (KKATNK), under setting [1], the Binding affinity was determined as 20 Ru.

With 6mer-1-714 (KRTSFK), under setting [1], the Binding affinity stood at 25 Ru.

Consider 6mer-1-715 (KRMMVK), for which the Binding affinity under setting [1] is 18 Ru.

As to 6mer-1-716 (RRMPFK), under setting [1], the Binding affinity came out at 11 Ru.

6mer-1-717 (KRHEDR): the Binding affinity under setting [1] amounted to 22 Ru.

As to 6mer-1-718 (RKFKAR), the Binding affinity under setting [1] turned out to be 23 Ru.

On to 6mer-1-719 (KKDAEK), for which the Binding affinity under setting [1] is 27 Ru.

With 6mer-1-720 (RRKHKR), the Binding affinity under setting [1] is 11 Ru.

As for 6mer-1-721 (RKAMEK), the Binding affinity under setting [1] is listed as 22 Ru.

In the case of 6mer-1-722 (RRNKVR), the Binding affinity under setting [1] amounted to 12 Ru.

For the substance 6mer-1-723 (RKMPAK), under setting [1], the Binding affinity was found to be 33 Ru.

Regarding 6mer-1-724 (KRPKNK), under setting [1], the Binding affinity is recorded as 19 Ru.

As to 6mer-1-725 (KKDKPK), under setting [1], the Binding affinity worked out at 32 Ru.

Regarding 6mer-1-726 (KKHSMK), the Binding affinity under setting [1] stood at 33 Ru.

(Values after US20250011363A1, “OPTIMIZED SHORTENED PEPTIDE THAT BINDS TO ACETYLCHOLINE RECEPTOR, AND USE THEREOF” (SKINMED CO., LTD., priority 2021, published 2025).)
